PMC10980018

Biological target: HKU5-20s trimeric ectodomain with 2P stabilizing mutations (merbecovirus HKU5-20s (host Pipistrellus abramus))
Test: cryo-EM structure

HKU5-20s trimeric ectodomain with 2P stabilizing mutations (domain or fragment)
stoichiometry N: 3
